Reference: publication PMC7062783, “Endophilin-A coordinates priming and fusion of neurosecretory vesicles via intersectin” (Nature Communications, 2020)

Target: T1, recombinant rat endophilin A1 FL (GST fusion) (rat, UniProt O35179 1-352)
T1 construct: endophilin A1 (endophilin 1), rat, full length, cloned into pGEX4T-1; also called endophilin 1
Test: pull-down; 50 or 100 ug GST-fusion protein coupled to GST-Bind resin, incubated with 10 ug His6-tagged recombinant protein in 1 ml for 1 h at 4 °C; extensive washes; Coomassie staining and/or SDS-PAGE and immunoblotting
Details: both partners purified

T1 sequence (O35179 whole entry, the tested form may be a part): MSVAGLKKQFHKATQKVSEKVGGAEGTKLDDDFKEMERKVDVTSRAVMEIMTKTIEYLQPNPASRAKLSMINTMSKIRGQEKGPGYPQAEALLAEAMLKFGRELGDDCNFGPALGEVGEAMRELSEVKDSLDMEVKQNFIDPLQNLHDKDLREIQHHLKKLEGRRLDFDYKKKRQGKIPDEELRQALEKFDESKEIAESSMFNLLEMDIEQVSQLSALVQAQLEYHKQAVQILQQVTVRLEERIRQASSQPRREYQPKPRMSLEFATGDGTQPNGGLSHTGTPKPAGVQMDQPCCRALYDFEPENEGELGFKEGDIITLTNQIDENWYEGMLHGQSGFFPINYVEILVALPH

B1: recombinant human intersectin-1 SH3B (aa 914-970), His6-tagged (domain or fragment, UniProt Q15811 914-970, looked up)
chain: EGLQAQALYPWRAKKDNHLNFNKNDVITVLEQQDMWWFGEVQGQKGWFPKSYVKLIS
notes: intersectin-1, human, SH3B domain, aa 914-970, cloned in pET28a; also called ITSN-1; ITSN1
binding result: binds
